Experimental data reported in patent US20240197879A1 (Memorial Sloan Kettering, published 2024).

Columns and labels:
[1] = biological target: human CD33 on cells (3T3 cells over-expressing CD33; U937, OCi-AML3, HL60, Set2 AML cells with endogenous CD33) (human) (UniProt P20138); test: flow cytometry on 3T3 cells over-expressing CD33 (3T3-CD33), Alexa Fluor 647 anti-human F(ab')2 detection, non-linear regression
[2] = biological target: His tag recombinant human full-length CD33 (human) (UniProt P20138); test: BLI epitope binning: human CD33-His on anti-penta-His biosensor, reference biosensor (buffer), no saturating mAb
His tag recombinant human full-length CD33 (human), sequence (P20138 18-259): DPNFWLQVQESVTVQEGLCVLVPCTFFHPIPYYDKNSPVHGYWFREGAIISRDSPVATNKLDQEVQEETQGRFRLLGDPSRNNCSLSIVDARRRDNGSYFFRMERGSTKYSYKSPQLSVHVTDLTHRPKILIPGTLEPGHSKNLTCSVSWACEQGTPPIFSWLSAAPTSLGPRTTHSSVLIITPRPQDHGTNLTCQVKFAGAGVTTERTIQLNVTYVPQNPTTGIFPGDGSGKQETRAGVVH

[3] = biological target: His tag recombinant human full-length CD33 (human) (UniProt P20138); test: BLI (Octet Red96e): antibody captured on anti-huFc biosensor, huCD33-His as analyte, 1:1 Langmuir fit
[4] = biological target: human CD33 on cells (3T3 cells over-expressing CD33; U937, OCi-AML3, HL60, Set2 AML cells with endogenous CD33) (human) (UniProt P20138); test: flow cytometry on U937 AML cells with endogenous CD33 (U937-CD33), Alexa Fluor 647 anti-human F(ab')2 detection, non-linear regression
[5] = biological target: His tag recombinant human full-length CD33 (human) (UniProt P20138); test: BLI epitope binning: human CD33-His on anti-penta-His biosensor, pre-saturated with 3P14
[6] = biological target: His tag recombinant human full-length CD33 (human) (UniProt P20138); test: BLI epitope binning: human CD33-His on anti-penta-His biosensor, pre-saturated with 4B2A
[7] = biological target: His tag recombinant human full-length CD33 (human) (UniProt P20138); test: BLI epitope binning: human CD33-His on anti-penta-His biosensor, pre-saturated with H195 (self-competition)
[8] = biological target: T1, His tag recombinant human full-length CD33 (human, UniProt P20138 18-259); test: BLI (Octet Red96e): antibody captured on anti-huFc biosensor, huCD33-His as analyte, 1:1 Langmuir fit
T1 construct: Commercial recombinant protein (R&D Systems / Acro Biosystems); also called huCD33-His; human CD33-His; not shown: 6xHis tag
T1 sequence (P20138 18-259): as above
Description: Lead and reference antibodies were produced recombinantly with a human IgG1 constant region. Selectivity was tested using His tag recombinant human full-length CD33 or CD33-IgC, mouse full-length CD33, and cynomolgus full-length CD33 proteins. Recombinant proteins at 5 μg/mL were captured by pre-blocked Ni-NTA plates. Candidate antibodies were added at 10 μg/mL in triplicate and detected using horseradish peroxidase (HRP)-conjugated anti-human Fc antibody. To assess the binding to cell-surface-bound CD33, 3T3 cells overexpressing CD33, as well as the U937 AML cell line, were used. U937 CD33-knockout (CD33KO) or NALM6 cells were included as negative controls. NALM6, U937 CD33⁺, and CD33KO cells were blocked with human IgG Fc for 20 minutes on ice. The recombinant antibodies were then serially diluted starting at 100 μg/mL concentration and added for 30 minutes on ice. Alexa Fluor 647-conjugated goat anti-human F(ab′)₂ was added to cells for 30 minutes on ice, washed and analyzed by flow cytometry, and normalized to secondary-only staining (MFI ratio). EC₅₀ values were determined by non-linear regression. The binding affinity and epitope binning to human CD33 protein was measured by biolayer interferometry (BLI) using an Octet Red96e. All experiments were carried out using kinetic buffer (PBS pH 7.4, 0.01% BSA, 0.002% Tween-20). […]

human CD33 on cells (3T3 cells over-expressing CD33; U937, OCi-AML3, HL60, Set2 AML cells with endogenous CD33) (human), sequence (P20138 18-364 limits assumed): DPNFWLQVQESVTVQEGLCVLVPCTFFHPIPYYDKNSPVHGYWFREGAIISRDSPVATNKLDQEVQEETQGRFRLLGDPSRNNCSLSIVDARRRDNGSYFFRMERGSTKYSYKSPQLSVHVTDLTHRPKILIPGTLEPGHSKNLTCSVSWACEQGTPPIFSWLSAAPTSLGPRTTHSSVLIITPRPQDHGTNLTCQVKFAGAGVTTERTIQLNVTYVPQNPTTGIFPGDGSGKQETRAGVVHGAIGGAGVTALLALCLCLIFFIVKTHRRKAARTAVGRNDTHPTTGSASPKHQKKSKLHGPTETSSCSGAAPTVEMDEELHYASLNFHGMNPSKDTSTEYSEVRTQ

B1: H195 (lintuzumab) (antibody, part only; not given: constant regions, human IgG1, V domains shown, not shown: another chain or arm of the molecule)
VH: QVQLVQSGAEVKKPGSSVKVSCKASGYTFTDYNMHWVRQAPGQGLEWIGYIYPYNGGTGYNQKFKSKATITADESTNTAYMELSSLRSEDTAVYYCARGRPAMDYWGQGTLVTVSS
VL: DIQMTQSPSSLSASVGDRVTITCRASESVDNYGISFMNWFQQKPGKAPKLLIYAASNQGSGVPSRFSGSGSGTDFTLTISSLQPDDFATYYCQQSKEVPWTFGQGTKVEIK
Work on B1 yielded an EC50 [1] of 4.8 nM, a binding of competing mAb, % of reference biosensor [2] of 100% and a Kd [3] of 1.22 nM. It also gave a kon [3] of 358000 M⁻¹ s⁻¹, an EC50 [4] of 0.4 nM and a binding of competing mAb, % of reference biosensor [5] of 78%. It also gave a binding of competing mAb, % of reference biosensor [6] of 100% and a binding of competing mAb, % of reference biosensor [7] of 5%.

B2: 3P14 (antibody, V domains shown)
VH: EVQLLESGGGLVQPGGSLRLSCAASGFTFSTYAMSWVRQAPGKGLEWVSAISGRGGSTYYTDSVKGRFTISRDNSKNTVSLQMNSLRAEDTAVYYCAGRGDYYYYYGMDVWGQGTTVTVSA
VL: DIVMTQSPLSSPVTLGQPASFSCRSSQSLVYSDGNTYLSWLQQRPGQPPRLLIYKISNRFSGVPDRFSGSGAGTDFTLKISRVEAEDVGVYYCMQSTQFPHTFGQGTKLEIK
notes: Hybridoma-derived mAb from AlivaMab mice; also called TDI-Y-006
For B2, the Kd [8] was 12.1 nM.

B3: 4B2A (antibody, V domains shown)
VH: EVHLLESGGGLVQPGGSLRLSCAASGFIFSSNAMSWVRQAPGKGLEWVSAISGYGGNTYYADSVKGRFTISRDNSKNTLYLQMNSLRAEDTAVYYCAKWGTYIVGATGDYWGQGTLVTVSS
VL: QSALTQPPSASGSPGQSVTISCTGTSNDVGGYNYVSWYQQHPGKAPKLLIYEVSKRPSGVPDRFSGSQSGNTASLTVSGLQAEDEADYYCSSYAGSNNWVFGGGTKLTVL
notes: also called TDI-Y-007
For B3, the Kd [8] was 12.9 nM.
